From the DeepSol protein solubility set

Experiment: soluble on expression in E. coli; label from the status in PepcDB or PDB records

Soluble on expression in E. coli, not soluble:
MGSDKIHHHHHHLDELRSGLDKPSHFRLGLAMWSHSNWQESVYGHGIKQAERLARYATIFNTVEGNTSFYATPAQQTVMNWHSATPDDFRFTFKLPQTITHQRLLQHCGQELKDFFQVMAPLIDKTGIWKIQLPAHFGPENLPVLAQFLNQVPQGLTYGVEVRHAAFFAKGDAERALNRLLIDKKVNRIIMDSRPLFALPPSNAAIIDAHKKKPRVPVHAIATANNPVVRFIGQPDDAVAQLAQQGVSALPKNNDAFFDNWLAQLPLWLAEGREPYLFIHTPDNETAPELAIRLYQTLRSQIAAQIQLAELSLLEKIPEETSTQMGLAW, MGSDKIHHHHHHLDFRLLRYFVAVAEELHLARAAERLGIEQSPVSRAMRDLESQLGVQLFDRSTRLTRLTWAGQVFLGECRRVMATVEQAVKSAKAAAQGYQGHLRIAICDSLAQPRIATLLARSREEEPELEIRVFELPFAQQLKMLHDDLLDIGFALSNAVHDGLVAEPVWTDPLSVIVPARHPLLAHVQVPLPEALKFPLVLCHPESGSGCRHQIQALLQDAGTPLKLVDEVTSLGVMLTLVGAGYGIGFAIASQVQTLQRPDISIRPLAGTPPMLSTYLLRRRGEPSEPMRRFIERVKDGAAPVDDEPVL, MGSDKIHHHHHHLELSSHFTPEKIQVGISSCLLGQKVRFDGGHKNSYYCDVTLREHVEFVPVCPEMSIGLGAPRKSIRQVRDGDTLLIQSGDGSLDVTDKLNTFSQQKVAELDFLGGYILCAKSPTCGMERVTEYKIGTNNGSKAGVGVFAKVLMETYPHLPVEEEGRLNDLVLRENFITRLYAYHDWFSMLASGLTKHKLIQFHSRYKYLIMAHSPKWYRALGPILADIQDLSASADAYFDGFMTALKIKATRKNHTSTLQHIQGYFKKHLSAGQKQELSESIDKYRQGLLPLLVPITLINHYLREFPTPYIESQVYLNPHPEELKLRYAY, MGSDKIHHHHHHLGDHTLNQVTDTPLSQQHITQHTQVAPSRLAAAGLSASIMLLKRILKPFEHVQRHRHSWGQVIYASQGVLSVITPAGRYIVPPEQAVWVPPFVDHEVIALSQVQLSSLYLDDTQIGGFPPCCTCLNVKPVLQLLLQEVNAFMKSEAGLIDPDFKDSVMRLLMVIRDFMVLAPKVALDLPYPKDKKLLRITEALLADPSEQRTLVDWQREVGASARTLARLFKQQTGLSYSQWLQRLRLQVAIQMLSRGESVLTTALSLGYASGSAFGYMFRQLMGVAPSQYLLAQSTLPKVQCQK, MGSDKIHHHHHHLITVTDLSLQIGSRTLYSDVNLKFTPGNCYGIIGANGAGKSTFLKLLEGKMEPTTGSISMGPNERMSSLNQDHFAFEDFSVMETVIQGHQKLYQVMKERDALYAKADFSEEDGVKAAELETEFAELDGWNAEADAAQLLQSMSIPEDMHQKQMSELAESDKVKVLLAQALFGNPDTLLLDEPTNGLDVHTTAWLENFLADYENIVLVVSHDRHFLNQVCTQMCDVDRGQIKLYVGNYDFWYESSKLATELARQQNAKKEEQIKQLQEFIARFSANASKSKQATSRKKQLDKISLDDIKPSSRKYPYIKFEMNRDLGNDLLRVDNVSYKSGDEQLLDNVSFIIRPGDKVAFLSRNTRATTALMEIIAGRLEPDSGTVTWGQTTSFNYMSRDLNANFDNDELTILDWLRQYADKEHDDNTFLRGFLGRMLFSGDEINKQIKVLSGGEKVRCQLSRMMLEAANVLVMDDPTNHLDLESITALNEAMENYPGSILFTSHDHEFIQTIANHIIEVGPKGVVARADISYDDFLAHPTVQEQVAKIY, MGSDKIHHHHHHLIYDVVIAGGGPVGLFLACELRLAGLPVLVLEQAEDPGSPLKRLPFGLRGLSAPTLEAFYRRGMLNEIAAPQRAKDDSGSSVPNAAHWMQQQRRPGGHFAGIQFYYDNIDTSKWPYRLPGPAGTSMAVEMEHIESVLTARAIALGVEIRRGLSVDGFDQSEEGVTVHAGSEIFRGRWLVGCDGGRSTVRRIGGFDFVGTDPEFTGYSVQVEMADPEKLKPGRHYTPTGMYTYQKPGTIAMVDFDGGAFHRTQPITLDHVQAVLRHISNTDVTVTALQLATTWTDRAYHATTYRKGRVLLAGDAAHIHSPLGGQGLNLGLGDAMNLGWKLAATVRDDAPAGLLDSYTSERHPVGAQVLDWSRAQVAIMRPSRSSRALEAIMRDLIDTRDGATYFAERVWGTALRYDLGSSHTLVGRSAPDFELIDGTRLGELFTKGRGLLLDFDALPSLQALASRWSDRITYVASDVKDRLGVSAVLVRPDGFVAWAGEASPNHDEATQAASQWFGKPEEEGRSPA, MGSDKIHHHHHHLLVKRARLIVGNCWYLLHRIPVEIKDNSQYDIKLSDFGLSEFAESAKFDPVLCGTGPYMSGYRLEGVQGYQHSYVDDVWALAVCLFFLLYNEWPFRKRDGNVKDLLGFDPSQMWVPFPQGCRITAKRVGQGLIIENVNWPDASGDFSNYKGYDLLSYVKDQSVLEFSKVGGEIYEFRAGDDVEQINHQMNAALTEHECFIRFPGQEEDRKRRFRNEVLAGIREYWIQSDIEYGSGTRKQDLLESLATGSTEHSILQKLRVLPAYKSARKRSAEQSELGMLSFGLSGILKNSK, MGSDKIHHHHHHLNAKIVCVSNKQLTISLDDFSGPLDLLLHLIRTQELDIFDLPIAKVTDQFLSFIDNQLNPSLDSAGEYLYMASTLIRIKSRFLLPTVKNEQEDEKEEDPRNELVNALIEYECYQAVTQDMSELEHSRSLSFTRPVAKIPENIEIKPLSAGVTLQDLQKAFLEIANRQKDLHPKKRTIERENFSVADKINEIKTFFGQKKLDSKIEFQYLFKLSSSNDEMITTFLAILELAKDHFILLSQNDEQQIFLTKGEMNA, MGSDKIHHHHHHLNIAVNTRLLLEDRLEGIGWFTYETLKRITEQNPQHTFHFFFDRPYNDKFVFGKNVVPHVLFPQARHPFLWYIFFEWSIPFMLRKVKADAFISTDGYMPKSSKVKVLNVIHDINFEHRPQDLPKRVANYYKKNMPLFAQKATRLATVSEFSKQDLVKTYNIPADKIDVVYNGCNAAFKPIPEAEQVKVRYKHSAGRPFFLYIGSMHPRKNILNLMKAFEVFKKMTNCDMKLLLVGKAMWSNKDIQSLYHTLIYRHDIHFLGHIKTAELARIMASAHALTFVPYFEGFGIPILEALNCGVPVITSNTTSLPEVAGKAALLVNPESSEAIANAMIQIYKAPHIREKLLAQGVIQRQKFSWDKTAALLWASFEKMMR, MGSDKIHHHHHHLPQLLSAMRGPGTRSPDMPYARKTLAQIRSDAMADIAAALQGSDPLLRFAALKIIGVVLAGMTNEEYGYLDWIAKQTNPFTADDEYLEAWGALKKVYRKDASAASLSATFTGVAGKLLDDGTPVVRSDGATYTTSGTQTVVGTSVTVTIVADVAGAAGNADPGTVVALDIAVDGIQSTGAVIGTVSSGADIEDQEDYRARVLAKYQQPPQGGAAPDYVEWATDVAGVTRAWCAPNGFGAGTVVVYVMLDDAQAAHGGFPQGTDGVSQHDQGPGGLPRGTVATGDQLVVADAIVTLQPGTALVWICSPVENVLSFELTGSAGWSTAIRNAVKAQISDVFFRNGDPRGGTIDRSDINSAIAAVPGTAGFVITSITGVISGTPTTYPANITGSFGSLPVLGEVTFG, MGSDKIHHHHHHLRNVLPKDALLTAVDISDSMMDVARAKFLPHEQVTFQVADATTLPFENEAFDAVVCQFGVMFFDKDTAFREAYRTLGRGGRYLFSVWDSRRYNPFASLAFEVLKQFFPLNPPRFLEAPVSSFEIDPIKEALIQSGFERIVISVQGREHDILDVRTFARGLVFSPVIEEIRERGGVEPEDIIAALAEALKREYGSRPTRYPMQAILFEAEKP, MGSDKIHHHHHHLSFIIRKALLTDVAAIVQLERAHVDDELLGSNSQLHAHSFTKSEVSQLINQHWFIVAEEQGVIIGYVMAAKWSFFSAQPLYRHIIQKLKFADLQGQALSTTNTCQYGPVWIQESKRGQGVFSALVTELKKQVADTFPFMVTYVAADNARSLAAHQQKAAMTEIDQFSFEQRDYCLLATTNIT, MGSDKIHHHHHHLSTSQPAEPGDEIARLGALAADFRRRLELDPGAIYPAHAECLWRLGNLQIAQGDVEAGLLSISDSVGLYRAIAQAQPDSYAVQLASLLNSQSNMLAEASHLEEARAIASDAVEHARSAMDDYGDQARFVLVSALINLAGLKMRSGDTAGTVDELAQAVEVFRDGGTAGQPFLGSMVEALHRAAMAFTEVGLWNEAIDTRRLLIGLFGQAPPSAVVQLLMLTLQQASVGLAGTGDTAKALVHANEAVDLARMLFAADGQANRLALAQAVGNLAGRHHDAGSLKEALDLSLEAVDLFQDAVSMDPIHAVPSLIVTLDCMASILTALGLPDQAATVREQRSQLQETLEIIAPRAN, MGSDKIHHHHHHMAAFTTTDGLRLFYEDEGTGQPLLCLAGLTRCSRDFEFLRPHVTDLRLIRLDYRGRGQSDYDPDYRNYNVLREAHDVIELLDHLGLDRVTVLGTSRGGMIAMALAASHPDRLAGVILNDVGPVIEPAGIARIMDYVGKKPVSKTHDQAALALKQAMEPQFPGVPLSVWRKQAEIQYAASDQGLALRYDDGLHKALLDQAATGAIPDLWLFFEALRDIPTAVLRGANSDILGAGTVAEMHRRHPGLISAEVPDRGHVPFLDEPQSLDLIRRILETA, MGSDKIHHHHHHMAAIPTYKLYGEKTEVSGEFLLHCETLFSRSSLYRFEIDLHRHENFLQILYISEGQGDATLDGKVIAITPPAAIVVPPLFSHGFRFSRSIKGMIITVLPAALPLAVRTSLKQALPLPLHMPLEGEPCAIEISLLMERIADEYAGAKPGRNGLLEAYLATVVLLLARQAAPDASQDLMTLTANDRRMEKLAALIAANFRSHKTAAFYAREMGLSPTHLNRLAKAGTGATLQQLIARKQLEIAQQELIFSQTSIQAIALNHGFTDPAYFTRFFTRETGLTPRAWRLAERQKLQNLSDRAQAEISAATASE, MGSDKIHHHHHHMAAKKKSASSRKLNLGCGRDIREGWINLDSMALPGVDVVADLSLCATTPLPFEDSSIDEFLLSHLIEHIPDPLPLMQELWRIAKPGAKMQIRVPHGAHDDAWTNPTHVKPYFARSFGYFSQPWYWRADYGYRGDWQPELVTYSVPRRRFAGQMPAQILEQIDALRNVVQEMIVDLVAVKPLRQPKKDLMQAANIKIALME, MGSDKIHHHHHHMAARNDDKYRGDTENKGFWTIDFGRSPVIGTAIHDGHFIRSDIASLMALSPEQRLREEDPFTGEMIARLTNRLVVHHSRFEIDLNRAADQAIYLKPEQSWGLEVWSEEPSQDAVRHSLDFHADYYAMLESVLSSVERRHGPFVVLDVHSYNHRRQGAGEPPTAQAEAPDINIGTFSMDRSRWNDVVSAVGEHFASATIGGRRLDVRENVAFQGKGEQTRFIHERFAENGCAIAIEFKKFFMDEWTGEPDRRVVSDIRETIAALQPVLEECLRSR, MGSDKIHHHHHHMADNFLSQDEVDALLKGVSGEVDDAPQEAVDTGGPRPYNLATQERIVRGRMPTLEIINERFARLLRIGLYNFLRRGVEISVGPVRVSKYSEFIRNLVVPTNLNLVQFKPLRGTALMIFNPDLVFLMVDNLFGGDGRFHTRVEGRDFTQTEHRIIQRILNIVFEAYGKSWEPVYPIEFEFIRSEMNTQFANIATPNEVVVAVTFAIELGQISGEMHFCMPYSMIEPIKDLLTSSLQAENLEVDKRWIRLMRQQIQLAEVEIVADLGTAEVSLRDIVNLKVGDVIPLDIPPTIEAKVDGVPVMECAYGKFNGQYTLRVEKLLSTSAVEPKTGEQHV
